According to US20200262920A1 (AMPHIVENA THERAPEUTICS, published 2020):
“And” between values parts separate entries of the source, which are not always exact repeats. Identical values can stand only once.

B1: CD33/CD3 2×2 T-cell engager 24 (bispecific antibody)
chain: DIQMTQSPSSLSASVGDRVTITCRSSTGAVTTSNYANWVQQKPGKAPKALIGGTNKRAPGVPSRFSGSLIGDKATLTISSLQPEDFATYYCALWYSNLWVFGQGTKVEIKGGSGGSQVQLVQSGAEVKKPGSSVKVSCKASGGTFDSYAISWVRQAPGQGLEWMGGIIPIFGSAHYSQKFQGRVTITADESTSTAYMELSSLRSEDTAVYYCAREYYYDSSEWAFDIWGQGTLVTVSSGGSGQSVLTQPPSASGTPGQRVTISCSGSSSNIGDNVVNWYQQLPGTAPKLLIYSTNKRPSGVPDRFSGSKSGSSASLAISGLQSEDEADYYCAAWDDSLSAYVFGGGTKLTVLGGSGGSEVQLVESGGGLVQPGGSLRLSCAASGFTFSTYAMNWVRQAPGKGLEWVGRIRSKYNNYATYYADSVKDRFTISRDDSKNSLYLQMNSLKTEDTAVYYCARHGNFGNSYVSYFAYWGQGTLVTVSSAAAGSHHHHHH
notes: Non-covalent homodimer
B2: CD33/CD3 2×2 T-cell engager 23 (bispecific antibody)
chain: DIQMTQSPSSLSASVGDRVTITCRSSTGAVTTSNYANWVQQKPGKAPKGLIGGTNKRAPGVPSRFSGSLIGTDFTLTISSLQPEDFATYYCALWYSNLWVFGQGTKVEIKGGSGGSQVQLVQSGAEVKKPGSSVKVSCKASGGTFSSYGISWVRQAPGQGLEWMGGIIPIFGSAHYAQKFQGRVTITADESTSTAYMELSSLRSEDTAVYYCAREYYYDSSEWAFDIWGQGTLVTVSSGGSGQSVLTQPPSASGTPGQRVTISCSGSSSNIGSNTVKWYQQLPGTAPKLLIYSNNQRSSGVPDRFSGSKSGSSASLAISGLQSEDEADYYCAAWDDSLNGYVFGGGTKLTVLGGSGGSEVQLVESGGGLVQPGGSLRLSCAASGFTFSTYAMNWVRQAPGKGLEWVGRIRSKYNNYATYYADSVKDRFTISRDDSKNSLYLQMNSLKTEDTAVYYCARHGNFGNSYVSWFAYWGQGTLVTVSS
notes: Non-covalent homodimer
B3: CD33/CD3 2×2 T-cell engager 14 (bispecific antibody)
chain: DIQMTQSPSSLSASVGDRVTITCRSSTGAVTTSNYANWVQQKPGKAPKALIGGTNKRAPGVPSRFSGSLIGDKATLTISSLQPEDFATYYCALWYSNLWVFGQGTKVEIKGGSGGSQVQLVQSGAEVKKPGASVKVSCKASGYTFTSYDINWVRQAPGQGLEWMGWMNPNSGNTGFAQKFQGRVTMTRDTSTSTVYMELSSLRSEDTAVYYCARDRANTDFSYGMDVWGQGTLVTVSSGGSGQSVLTQPPSASGTPGQRVTISCSGSRSNIGSNTVNWYQQLPGTAPKLLIYGNNQRPSGVPDRFSGSKSGTSASLAISGLQSEDEADYYCATWDDSLIGWVFGGGTKLTVLGGSGGSEVQLVESGGGLVQPGGSLRLSCAASGFTFSTYAMNWVRQAPGKGLEWVGRIRSKYNNYATYYADSVKDRFTISRDDSKNSLYLQMNSLKTEDTAVYYCARHGNFGNSYVSYFAYWGQGTLVTVSSAAAGSHHHHHH
notes: Non-covalent homodimer
B4: CD33/CD3 2×2 T-cell engager 20 (bispecific antibody)
chain: DIQMTQSPSSLSASVGDRVTITCRSSTGAVTTSNYANWVQQKPGKAPKGLIGGTNKRAPGVPSRFSGSLIGTDFTLTISSLQPEDFATYYCALWYSNLWVFGQGTKVEIKGGSGGSQVQLVQSGAEVKKPGASVKVSCKASGYTFTSYYMHWVRQAPGQGLEWMGIINPSGGSTSYAQKFQGRVTMTRDTSTSTVYMELSSLRSEDTAVYYCARDVVPAAIDYYGMDVWGQGTTVTVSSGGSGQSVLTQPPSASGTPGQRVTISCSGSSSNIGSNTVNWYQQLPGTAPKLLIYSDNQRPSGVPDRFSGSKSGSSASLAISGLQSDDEADYYCATWDDSLNGAVFGGGTKLTVLGGSGGSEVQLVESGGGLVQPGGSLRLSCAASGFTFSTYAMNWVRQAPGKGLEWVGRIRSKYNNYATYYADSVKDRFTISRDDSKNSLYLQMNSLKTEDTAVYYCARHGNFGNSYVSWFAYWGQGTLVTVSSAAAGSHHHHHH
notes: Non-covalent homodimer
B5: CD33/CD3 2×2 T-cell engager 18 (bispecific antibody)
chain: EVQLVESGGGLVQPGGSLRLSCAASGFTFSTYAMNWVRQAPGKGLEWVGRIRSKYNNYATYYADSVKDRFTISRDDSKNSLYLQMNSLKTEDTAVYYCARHGNFGNSYVSYFAYWGQGTLVTVSSGGSGGSQSVLTQPPSVSGAPGQRVTISCTGSSSNIGAGYDVHWYQQLPGTAPKLLIYGNSNRPSGVPDRFSGSKSGTSASLAITGLQAEDEADYYCQSYDSSLSDVVFGGGTKLTVLGGSGQVQLVQSGAEVKKPGESLKISCKGSGYSFTSYWIGWVRQMPGKGLEWMGIIYPGDSDTRYSPSFQGQVTISADKSISTAYLQWSSLKASDTAMYYCARHKRGSDAFDIWGQGTTVTVSSGGSGGSDIQMTQSPSSLSASVGDRVTITCRSSTGAVTTSNYANWVQQKPGKAPKALIGGTNKRAPGVPSRFSGSLIGDKATLTISSLQPEDFATYYCALWYSNLWVFGQGTKVEIKAAAGSHHHHHH
notes: Non-covalent homodimer
B6: CD33/CD3 2×2 T-cell engager 07 (bispecific antibody)
chain: DIQMTQSPSSLSASVGDRVTITCRSSTGAVTTSNYANWVQQKPGKAPKALIGGTNKRAPGVPSRFSGSLIGDKATLTISSLQPEDFATYYCALWYSNLWVFGQGTKVEIKGGSGGSQVQLQESGGGVVQPGRSLRLSCAASGFSFSNYGIHWVRQAPGKGLEWVALISYDGNKKFYADSVKGRFAISRDTSKNTVDLQMTSLRPEDTAVYYCAKDRLESAAFDYWGQGTLVTVSSGGSGGSSYELTQPPSVSVAPGQTAMITCGGNNIGSTTVHWYQQKPGQAPVLVVYDDNERPSGIPERFSGSNSGSTATLTINRVEAGDEADYYCQVWDSGSDHVVFGGGTKLTVLGGSGGSEVQLVESGGGLVQPGGSLRLSCAASGFTFSTYAMNWVRQAPGKGLEWVGRIRSKYNNYATYYADSVKDRFTISRDDSKNSLYLQMNSLKTEDTAVYYCARHGNFGNSYVSYFAYWGQGTLVTVSSAAAGSHHHHHH
notes: Non-covalent homodimer; also called 2×2 T-cell engager 7

The binders below were run against T1, human CD33 (human, UniProt P20138 18-364) (assay: cell-based or functional assay).
T1 sequence (P20138 18-364): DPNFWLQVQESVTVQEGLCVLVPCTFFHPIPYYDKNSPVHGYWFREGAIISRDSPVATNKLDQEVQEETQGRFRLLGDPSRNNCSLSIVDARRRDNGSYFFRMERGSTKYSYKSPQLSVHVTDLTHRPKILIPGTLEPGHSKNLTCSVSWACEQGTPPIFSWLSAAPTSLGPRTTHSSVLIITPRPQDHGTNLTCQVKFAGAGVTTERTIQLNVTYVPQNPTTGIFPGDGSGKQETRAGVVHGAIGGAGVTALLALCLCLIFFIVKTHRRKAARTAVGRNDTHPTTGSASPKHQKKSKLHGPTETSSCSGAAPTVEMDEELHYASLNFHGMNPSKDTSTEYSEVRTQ
B1 was tested, and the “EC50 on HL-60 (cytotoxicity)” value was 0.0096 nM.
With B2 the “EC50 on HL-60 (cytotoxicity)” value was 0.0028 nM.
For B3, the “EC50 on HL-60 (cytotoxicity)” value was 0.0016 nM.
For B4, the “EC50 on HL-60 (cytotoxicity)” value was 0.01 nM.
In the case of B5, the “EC50 on HL-60 (cytotoxicity)” value is reported as 0.0063 nM.
With B6 the “EC50 on HL-60 (cytotoxicity)” value was 0.0178 nM.

Target: T1, human CD33
Assay: cell-based or functional assay
Remark: another data set of the same source
In the case of B3, the “EC50, cytotoxicity on HL-60” value is reported as 1.6 pM and 168 pg/mL, the “EC50, cytotoxicity on KG-1” value is reported as 2.6 pM and 273 pg/mL and the “EC50, cytotoxicity on U-937” value is reported as 3.6 pM and 378 pg/mL. The “EC50, cytotoxicity, mean of HL-60, U-937, KG-1” value was 2.6 pM and 273 pg/mL.

These binders were tested against T2, human CD3 (human, UniProt P07766 23-207; P09693 23-182; P04234 22-171; P20963 22-164) (assay: cell-based or functional assay).
T2 sequence (P07766 23-207, chain 1 of 4): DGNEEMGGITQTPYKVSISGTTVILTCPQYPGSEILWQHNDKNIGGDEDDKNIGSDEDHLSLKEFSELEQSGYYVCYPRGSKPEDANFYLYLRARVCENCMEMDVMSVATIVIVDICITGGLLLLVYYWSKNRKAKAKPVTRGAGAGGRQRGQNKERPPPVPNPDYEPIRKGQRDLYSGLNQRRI
T2 sequence (P09693 23-182, chain 2 of 4): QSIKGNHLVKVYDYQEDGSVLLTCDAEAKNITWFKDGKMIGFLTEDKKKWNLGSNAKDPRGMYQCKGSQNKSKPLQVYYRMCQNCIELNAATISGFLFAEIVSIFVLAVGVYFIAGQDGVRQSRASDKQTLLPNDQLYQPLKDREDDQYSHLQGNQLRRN
T2 sequence (P04234 22-171, chain 3 of 4): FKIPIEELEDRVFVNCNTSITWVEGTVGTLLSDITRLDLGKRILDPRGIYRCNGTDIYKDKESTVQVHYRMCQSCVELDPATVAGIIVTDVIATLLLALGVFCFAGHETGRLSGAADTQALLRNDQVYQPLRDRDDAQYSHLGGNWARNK
T2 sequence (P20963 22-164, chain 4 of 4): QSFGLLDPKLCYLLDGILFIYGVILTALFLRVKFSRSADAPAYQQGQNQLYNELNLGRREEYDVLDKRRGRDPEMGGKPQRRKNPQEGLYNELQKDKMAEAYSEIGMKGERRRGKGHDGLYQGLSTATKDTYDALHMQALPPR
In the case of B1, the “CD69 Induction EC50” value is reported as 0.057 nM and the “T cell Proliferation in PBMC EC50” value is reported as 0.264 nM.
For B2, the “CD25 Induction EC50” value was 0.041 nM, the “CD69 Induction EC50” value was 0.017 nM and the “T cell Proliferation in PBMC EC50” value was 0.037 nM.
B3 was tested, and the “CD25 Induction EC50” value was 0.01 nM, the “CD69 Induction EC50” value was 0.007 nM and the “T cell Proliferation in PBMC EC50” value was 0.006 nM.
For B4, the “CD25 Induction EC50” value was 0.098 nM, the “CD69 Induction EC50” value was 0.075 nM and the “T cell Proliferation in PBMC EC50” value was 0.038 nM.
In the case of B6, the “CD25 Induction EC50” value is reported as 0.134 nM, the “CD69 Induction EC50” value is reported as 0.065 nM and the “T cell Proliferation in PBMC EC50” value is reported as 0.05 nM.

Each binder was assayed against T1, human CD33 (assay: flow cytometry, HL-60 cells).
B1 was tested, and the Kd was 5.6 nM.
B2 showed a Kd of 0.4 nM.
For B3, the Kd was 0.3 nM.
With B4 the Kd was 4.1 nM.
Work on B6 yielded a Kd of 13.7 nM.

The binders below were run against T2, human CD3 (assay: flow cytometry, human T-cells).
B1 gave a Kd of 2.3 nM.
Binder B2 has a Kd of 97.2 nM.
Binder B3 has a Kd of 2.1 nM.
Work on B4 yielded a Kd of 144 nM.
B6 was tested, and the Kd was 49.7 nM.

The binders below were run against T1, human CD33 (assay: flow cytometry titration, KG-1 cells).
Protocol: (§1) Cells were incubated with 100 μL of serial dilutions of CD33/CD3 2×2 T-cell engagers. After washing three times with FACS buffer the cells were incubated with 0.1 mL of 10 μg/mL mouse monoclonal anti-His antibody in the same buffer for 45 min on ice. After a second washing cycle, the cells were incubated with 0.1 mL of 15 μg/mL FITC-conjugated goat anti-mouse IgG antibodies under the same conditions as before. As a control, cells were incubated with the anti-His IgG followed by the FITC-conjugated goat anti-mouse IgG antibodies without anti-CD33 2×2 T-cell engagers. The cells were then washed again and resuspended in 0.2 mL of FACS buffer containing 2 μg/mL propidium iodide (PI) in order to exclude dead cells. The fluorescence of 1×10⁴ living cells was measured using a Beckman-Coulter FC500 MPL flow cytometer using the MXP software (Beckman-Coulter, Krefeld, Germany) or a Millipore Guava EasyCyte flow cytometer using the Incyte software (Merck Millipore, Schwalbach, Germany). Mean fluorescence intensities of the cell samples were calculated using CXP software (Beckman-Coulter, Krefeld, Germany) or Incyte software (Merck Millipore, Schwalbach, Germany). After subtracting the fluorescence intensity values of the cells stained with the secondary and tertiary reagents alone the values were used for calculation of the KD values with the equation for one-site binding (hyperbola) of the GraphPad Prism (version 6.00 for Windows, GraphPad Software, La Jolla Calif. USA). […]
Binder B1 has a Kd of 12.4 nM.
Work on B2 yielded a Kd of 1 nM.
B3 was tested, and the Kd was 0.3 nM.
B4 gave a Kd of 7 nM.
B5 gave a Kd of 16.3 nM.
In the case of B6, the Kd is reported as 47.9 nM.

Each binder was assayed against T1, human CD33 (assay: flow cytometry titration, HL-60 cells).
Protocol: as §1
For B1, the Kd was 5.6 nM.
B2 was tested, and the Kd was 0.4 nM.
With B3 the Kd was 0.3 nM.
In the case of B4, the Kd is reported as 4.1 nM.
In the case of B5, the Kd is reported as 3.4 nM.
Binder B6 has a Kd of 13.7 nM.

Each binder was assayed against T1, human CD33 (assay: flow cytometry titration, U-937 cells).
Protocol: as §1
B1 was tested, and the Kd was 39.5 nM.
In the case of B2, the Kd is reported as 5.1 nM.
B3 was tested, and the Kd was 1.2 nM.
For B4, the Kd was 7.2 nM.
Binder B5 has a Kd of 15.1 nM.
B6 gave a Kd of 47.1 nM.

What follows are binders tested against T2, human CD3 (assay: flow cytometry titration, T cells (human CD3+)).
Binder B1 has a Kd of 2.3 nM.
With B2 the Kd was 97.2 nM.
B3 gave a Kd of 2.1 nM.
With B4 the Kd was 144 nM.
B5 gave a Kd of 1.9 nM.
In the case of B6, the Kd is reported as 49.7 nM.

What follows are binders tested against T3, cynomolgus CD33 (cynomolgus, UniProt A0A7N9ICR5 17-359) (assay: ratio of KD by flow cytometry on CHO cells expressing cynomolgus CD33 vs human CD33).
T3 construct: whole, on cells; also called cynoCD33; cyno CD33
Protocol: Cells were incubated with 100 μL of serial dilutions of CD33/CD3 2×2 T-cell engagers. After washing three times with FACS buffer the cells were incubated with 0.1 mL of 10 μg/mL mouse monoclonal anti-His antibody in the same buffer for 45 min on ice. After a second washing cycle, the cells were incubated with 0.1 mL of 15 μg/mL FITC-conjugated goat anti-mouse IgG antibodies under the same conditions as before. As a control, cells were incubated with the anti-His IgG followed by the FITC-conjugated goat anti-mouse IgG antibodies without anti-CD33 2×2 T-cell engagers. The cells were then washed again and resuspended in 0.2 mL of FACS buffer containing 2 μg/mL propidium iodide (PI) in order to exclude dead cells. The fluorescence of 1×10⁴ living cells was measured using a Beckman-Coulter FC500 MPL flow cytometer using the MXP software (Beckman-Coulter, Krefeld, Germany) or a Millipore Guava EasyCyte flow cytometer using the Incyte software (Merck Millipore, Schwalbach, Germany). Mean fluorescence intensities of the cell samples were calculated using CXP software (Beckman-Coulter, Krefeld, Germany) or Incyte software (Merck Millipore, Schwalbach, Germany). After subtracting the fluorescence intensity values of the cells stained with the secondary and tertiary reagents alone the values were used for calculation of the KD values with the equation for one-site binding (hyperbola) of the GraphPad Prism (version 6.00 for Windows, GraphPad Software, La Jolla Calif. USA).
CD3 binding affinity and crossreactivity were evaluated in titration and flow cytometric experiments on CD3⁺ Jurkat cells (provided by Dr. Moldenhauer, DKFZ Heidelberg; human acute T-cell leukemia) and the cynomolgus CD3⁺ HSC-F cell line (JCRB, cat.:JCRB 1164). […] The KD ratio of crossreactivity was calculated using the KD values determined on the CHO cell lines expressing either recombinant human or recombinant cynomolgus antigens.
For B2, the “KD ratio cynoCD33/huCD33” value was 1.9.
B4 was tested, and the “KD ratio cynoCD33/huCD33” value was 33.8.
For B5, the “KD ratio cynoCD33/huCD33” value was 3.1.
For B6, the “KD ratio cynoCD33/huCD33” value was 45.8.
